Reference: article PMC4082962

Biological target: Cdc42, endogenous in human mammary epithelial cells (human (endogenous in MCF10A and HMEC)) (UniProt P60953)
Experiment: pull-down

Sequence of UniProt P60953 (P60953 whole entry): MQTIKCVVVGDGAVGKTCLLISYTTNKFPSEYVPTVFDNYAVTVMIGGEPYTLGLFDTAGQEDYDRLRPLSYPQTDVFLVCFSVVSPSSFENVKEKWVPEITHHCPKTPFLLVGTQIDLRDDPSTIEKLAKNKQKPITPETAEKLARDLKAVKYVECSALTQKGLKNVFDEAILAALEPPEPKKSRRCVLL

Substance	percent decrease of the pull-down relative to TβRIII
TβRIII-T841A (β-arrestin2 binding deficient) (from UniProt Q03167 21-851) (receptor)	70%
TβRIIIΔCyto (TβRIII lacking cytoplasmic domain) (domain or fragment)	60%
